Laboratory results as given in paper PMC10091538, “The H2TH-like motif of the Escherichia coli multifunctional protein KsgA is required for DNA binding involved in DNA repair and the suppression of mutation frequencies”.

T1: His-KsgA (1-213) (Escherichia coli, UniProt P06992 1-213, del214-273)
T1 sequence: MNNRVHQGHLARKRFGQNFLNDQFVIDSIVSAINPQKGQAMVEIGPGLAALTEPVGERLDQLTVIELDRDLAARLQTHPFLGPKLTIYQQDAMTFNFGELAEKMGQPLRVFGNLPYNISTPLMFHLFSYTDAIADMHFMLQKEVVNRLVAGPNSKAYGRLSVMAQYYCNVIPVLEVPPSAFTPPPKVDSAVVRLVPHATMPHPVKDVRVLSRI

T2: His-KsgA (1-273) (Escherichia coli, UniProt P06992 1-273)
T2 sequence: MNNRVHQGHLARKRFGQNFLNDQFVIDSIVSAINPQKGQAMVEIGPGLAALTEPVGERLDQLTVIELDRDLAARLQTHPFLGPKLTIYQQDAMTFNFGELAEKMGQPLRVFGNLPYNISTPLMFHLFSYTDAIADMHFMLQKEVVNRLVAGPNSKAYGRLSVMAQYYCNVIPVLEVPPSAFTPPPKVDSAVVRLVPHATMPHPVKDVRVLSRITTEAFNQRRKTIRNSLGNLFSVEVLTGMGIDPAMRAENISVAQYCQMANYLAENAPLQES

T3: His-KsgA (9-273) (Escherichia coli, UniProt P06992 9-273, del1-8)
T3 sequence: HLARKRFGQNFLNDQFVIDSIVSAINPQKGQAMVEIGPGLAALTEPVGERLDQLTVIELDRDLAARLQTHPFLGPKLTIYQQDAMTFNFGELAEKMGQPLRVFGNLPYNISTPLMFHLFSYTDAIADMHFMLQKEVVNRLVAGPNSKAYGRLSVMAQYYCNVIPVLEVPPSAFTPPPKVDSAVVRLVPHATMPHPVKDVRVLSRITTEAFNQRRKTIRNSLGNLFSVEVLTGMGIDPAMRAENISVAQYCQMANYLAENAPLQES

B1: 5-ohC/T duplex (dsDNA)
DNA 1: GAACTAGTGCATCCCCCGGGCTGC
DNA 2: GCAGCCCGGGGGATTCACTAGTTC
modifications: 5-hydroxycytosine (5-ohC) opposite T
B2: 5-ohC/G duplex (dsDNA)
DNA 1: GAACTAGTGCATCCCCCGGGCTGC
DNA 2: GCAGCCCGGGGGATGCACTAGTTC
modifications: 5-hydroxycytosine (5-ohC) opposite G
B3: Tg/C duplex (dsDNA)
DNA 1: GCTGCCCGGGGGTTCCTCTTGTTC
DNA 2: GAACAAGAGTAACCCCCGGGCAGC
modifications: thymine glycol (Tg) opposite C
B4: 5-ohC/C duplex (dsDNA)
DNA 1: GAACTAGTGCATCCCCCGGGCTGC
DNA 2: GCAGCCCGGGGGATCCACTAGTTC
modifications: 5-hydroxycytosine (5-ohC) opposite C
B5: 5-ohC/A duplex (dsDNA)
DNA 1: GAACTAGTGCATCCCCCGGGCTGC
DNA 2: GCAGCCCGGGGGATACACTAGTTC
modifications: 5-hydroxycytosine (5-ohC) opposite A
B6: 5-foU/C duplex (dsDNA)
DNA 1: GGTACCTTCAGTCGACC
DNA 2: GGTCGACTUAAGGTACC
modifications: 5-formyluracil (5-foU) opposite C

Each binder was assayed against T1, His-KsgA (1-213) (assay: EMSA; 100 pmol protein, 10 fmol DNA, 500 ng calf thymus DNA; EMSA, 10 ul, 4 C, 60 min: 25 mM Tris-HCl pH 8.0, 500 uM DTT, 500 uM EDTA, 10% glycerol, 25 mM NaCl, 25 mM KCl, 10 uM ZnCl2, 125 uM each dNTP, 4 mM spermidine, 500 ng calf thymus DNA, 10 fmol 32P-dsDNA, 100 pmol protein; 12% PAGE). Details: protein: recombinant; tags: His (pET21a(+), BamHI/XhoI); label: 5'-32P.
B1: no binding. B2: no binding. B3: no binding. B4: no binding. B5: no binding.

What follows are binders tested against T2, His-KsgA (1-273) in the same assay as above. Details: protein: recombinant; tags: His (pET21a(+), BamHI/XhoI); label: 5'-32P.
B1: binds. B2: binds. B6: binds. B3: binds. B4: binds. B5: binds.

These binders were tested against T3, His-KsgA (9-273) in the same assay as above. Details: protein: recombinant; tags: His (pET21a(+), BamHI/XhoI); label: 5'-32P.
B1: binds. B2: binds. B6: binds. B3: binds. B4: binds. B5: binds.
